Experimental data from US20240181074A1, “PEGYLATED T CELL ENGAGER WITH DUAL SPECIFICITIES TO CD3 AND CD19” (Shenzhen Enduring Biotech, Ltd., priority 2021, published 2024).

How the values were obtained:
[1] = tested on: EAE model mice; test: EAE model, head-to-head comparison of JY108 to MEDI-551 (Example 9); type: in vivo
Method: MEDI-551 (Inebilizumab) is an anti-CD19 monoclonal antibody currently under clinical trial for treating MS. […] For head-to-head comparison, EAE model in this experiment were constructed in the same way as described in Example 8 and MEDI-551 treated group (a single i.v. injection of 250 μg/animal) was included in the experiment. On Day 12 after generation of the EAE model, the male animals were randomly grouped into 4 groups (n=7): MEDI-551 treated group, model group (control), two groups treated with JY108 at 60 μg/animal and at 80 μg/animal with 5 doses in total (Day 14, Day 15, Day 17, Day 19 and Day 21). The clinical scores were recorded for each animal on daily basis (except Day 18). Female mice were grouped similarly (n=7) after day 11 of EAE induction and treated with JY108 (30, 50, 75 μg/animal) and MEDI551 (250 μg/animal).

[2] = tested on: CD19^+ B cells; test: Spleen B cells in the EAE experiment (flow cytometry); type: in vivo, mice; settings: day 15, MEDI-551 treated group
Excerpt: To better illustrate the mechanism of JY108 in ameliorating EAE symptoms, the spleen B cells in the EAE experiment were examined on day 15, using the same method described in Example 9.

[3] = tested on: Breg cells; test: Breg cells in spleen of EAE animals (PE-anti-CD19 / FITC-B10 flow cytometry); type: in vivo, mice
Excerpt: The seemed contradictory results prompted us to see what happened to other related immune cells after JY108 treatment. Using the method described in Example 5, the spleen cells derived from the animals in the EAE experiment were double stained with PE-anti-CD19 and FITC-B10 (a marker for Breg) and counted via flowcytometry.

[4] = tested on: MOG specific B cells; test: ELISPOT of residual MOG specific B cells in spinal cord; type: in vivo, mice
Method: Since MOG specific B cells are the major source of autoantibodies for CNS myelination damage, ELISPOT was performed by following the protocol provided by the vendor's manual to compare the residual MOG specific B cells in the spinal cord of the tested animals.

[5] = tested on: EAE model; settings: cited from earlier work

B1: MEDI-551: anti-CD19 monoclonal antibody currently under clinical trial for treating MS (antibody, chains of the INN, looked up, V domains shown)
VH: EVQLVESGGGLVQPGGSLRLSCAASGFTFSSSWMNWVRQAPGKGLEWVGRIYPGDGDTNYNVKFKGRFTISRDDSKNSLYLQMNSLKTEDTAVYYCARSGFITTVRDFDYWGQGTLVTVSS
VL: EIVLTQSPDFQSVTPKEKVTITCRASESVDTFGISFMNWFQQKPDQSPKLLIHEASNQGSGVPSRFSGSGSGTDFTLTINSLEAEDAATYYCQQSKEVPFTFGGGTKVEIK
[1]; female mice, 250 μg/animal
  EAE symptoms (clinical score): not effective
[1]; male mice, single i.v. 250 μg/animal on day 14
  EAE symptoms (clinical score): did not show any therapeutic effect
[2]
  CD19^+ B cells in spleen: almost completely eliminated
[3]
  effect on Breg cells: little effect
[4]
  MOG specific B cells in the spinal cord: depleted MOG specific B cells effectively
[5]; administered on day 7 after EAE induction (Chen 2014)
  EAE symptoms of male mice: able to delay the EAE symptoms
[5]; pre-clinical results
  efficacy in EAE model versus anti-CD20 antibody: more effective than marketed monoclonal anti-CD20 antibody
